Our source for the binding signal values is publication PMC11417369, “DNA sequence and chromatin differentiate sequence-specific transcription factor binding in the human malaria parasite Plasmodium falciparum”.

The labels stand for the following.
T1: AP2-G D1 (Plasmodium falciparum, UniProt Q8I5I9 2123-2245)
T1 sequence: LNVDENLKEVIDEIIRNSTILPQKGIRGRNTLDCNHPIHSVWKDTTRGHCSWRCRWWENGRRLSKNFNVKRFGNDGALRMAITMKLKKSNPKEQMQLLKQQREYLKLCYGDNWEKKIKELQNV

B1: XGTACX_site1856 (dsDNA)
DNA 1: ATAAATTATAATAACTGTACAAAAATAATATATTCA
DNA 2: TGAATATATTATTTTTGTACAGTTATTATAATTTAT
B2: XGTACX_site4853 (dsDNA)
DNA 1: TTTGACACAATATTTTGTACGAAACTATTAATTCAA
DNA 2: TTGAATTAATAGTTTCGTACAAAATATTGTGTCAAA
B3: XGTACX_site6680 (dsDNA)
DNA 1: TTTGTATATTATTTTAGTACATAACATTGAAGATAT
DNA 2: ATATCTTCAATGTTATGTACTAAAATAATATACAAA
B4: XGTACX_site4930 (dsDNA)
DNA 1: TGGAGGATAGTTCACAGTACCCAGTAACTCTACGGA
DNA 2: TCCGTAGAGTTACTGGGTACTGTGAACTATCCTCCA
B5: XGTACX_site841 (dsDNA)
DNA 1: TATATATATAATATATGTACTGATATGCTATTTACT
DNA 2: AGTAAATAGCATATCAGTACATATATTATATATATA
B6: XGTACX_site5487 (dsDNA)
DNA 1: ACAAGTTTAACATTTCGTACTTATTGTGTTTTTTTT
DNA 2: AAAAAAAACACAATAAGTACGAAATGTTAAACTTGT
B7: XGTACX_site4821 (dsDNA)
DNA 1: AATAAAACATCATCATGTACAAAATTCGTCTTTGTA
DNA 2: TACAAAGACGAATTTTGTACATGATGATGTTTTATT
B8: XGTACX_site8691 (dsDNA)
DNA 1: AAAAATATTTTGGTTTGTACATATATTTTTACAATA
DNA 2: TATTGTAAAAATATATGTACAAACCAAAATATTTTT
B9: XGTACX_site150 (dsDNA)
DNA 1: ATATACATATATATATGTACTGAAAAGAAAAGAATT
DNA 2: AATTCTTTTCTTTTCAGTACATATATATATGTATAT
B10: XGTACX_site8657 (dsDNA)
DNA 1: ATTAAGATGTATATATGTACATATTACATACATATA
DNA 2: TATATGTATGTAATATGTACATATATACATCTTAAT
B11: XGTACX_site3854 (dsDNA)
DNA 1: AACCATTCTTCTAATTGTACATTGAAAAATCATGAT
DNA 2: ATCATGATTTTTCAATGTACAATTAGAAGAATGGTT
B12: XGTACX_site5309 (dsDNA)
DNA 1: CTATACAATAAAAATTGTACATACATATATGTTATA
DNA 2: TATAACATATATGTATGTACAATTTTTATTGTATAG
B13: XGTACX_site5674 (dsDNA)
DNA 1: TATCTAGTTACTCCTTGTACATAATAAATGATTTTT
DNA 2: AAAAATCATTTATTATGTACAAGGAGTAACTAGATA
B14: XGTACX_site972 (dsDNA)
DNA 1: GAAACAAAATTATTTTGTACATATGACTGTAGATAT
DNA 2: ATATCTACAGTCATATGTACAAAATAATTTTGTTTC
B15: XGTACX_site1104 (dsDNA)
DNA 1: ACCATATAATTTTTTTGTACATAATGATTTTTTTTT
DNA 2: AAAAAAAAATCATTATGTACAAAAAAATTATATGGT
B16: XGTACX_site5139 (dsDNA)
DNA 1: TATATACAGAATATATGTACATATTCATTTTATATT
DNA 2: AATATAAAATGAATATGTACATATATTCTGTATATA
B17: XGTACX_site1414 (dsDNA)
DNA 1: CTATAATATTATAACAGTACATAATATTATATATAT
DNA 2: ATATATATAATATTATGTACTGTTATAATATTATAG
B18: XGTACX_site5737 (dsDNA)
DNA 1: TAATGGAATACATATAGTACATAATATTACATACAT
DNA 2: ATGTATGTAATATTATGTACTATATGTATTCCATTA
B19: XGTACX_site4444 (dsDNA)
DNA 1: ATATAATATTGAGTTTGTACATATATATATGAAGAT
DNA 2: ATCTTCATATATATATGTACAAACTCAATATTATAT
B20: XGTACX_site2720 (dsDNA)
DNA 1: TCCTATTTTATATAATGTACATAAATATATTACATA
DNA 2: TATGTAATATATTTATGTACATTATATAAAATAGGA
B21: XGTACX_site2105 (dsDNA)
DNA 1: ATTAATTATTGTAATTGTACATTTTATATATATCCA
DNA 2: TGGATATATATAAAATGTACAATTACAATAATTAAT
B22: XGTACX_site84 (dsDNA)
DNA 1: AATTAAATGGATAAATGTACATATGTGAATATATTT
DNA 2: AAATATATTCACATATGTACATTTATCCATTTAATT
B23: XGTACX_site8642 (dsDNA)
DNA 1: CAAAGCATAGTATGATGTACAAATGTTCCTATAATA
DNA 2: TATTATAGGAACATTTGTACATCATACTATGCTTTG
B24: XGTACX_site8705 (dsDNA)
DNA 1: ACTAAAGTGTATCACTGTACAATTCTTCTCTTTTTT
DNA 2: AAAAAAGAGAAGAATTGTACAGTGATACACTTTAGT
B25: XGTACX_site3550 (dsDNA)
DNA 1: AATATTAAAGAATAATGTACAAAATAAAAGCAAAGA
DNA 2: TCTTTGCTTTTATTTTGTACATTATTCTTTAATATT
B26: XGTACX_site8765 (dsDNA)
DNA 1: TTCCCTCCTCAAAATTGTACTAGAATAATAACATAA
DNA 2: TTATGTTATTATTCTAGTACAATTTTGAGGAGGGAA
B27: XGTACX_site1874 (dsDNA)
DNA 1: GGTATAAAGAAATTTTGTACATATTTCTCCCTTTAA
DNA 2: TTAAAGGGAGAAATATGTACAAAATTTCTTTATACC
B28: XGTACX_site2945 (dsDNA)
DNA 1: AAGCATAAAGTATATAGTACATATATATATATATAT
DNA 2: ATATATATATATATATGTACTATATACTTTATGCTT
B29: XGTACX_site4926 (dsDNA)
DNA 1: ATCAACATTATGGTTAGTACTTAGTGAATTGTTAAT
DNA 2: ATTAACAATTCACTAAGTACTAACCATAATGTTGAT
B30: XGTACX_site2156 (dsDNA)
DNA 1: AATATATATATATATAGTACATATTTTTATTCATTA
DNA 2: TAATGAATAAAAATATGTACTATATATATATATATT

For the data set, the target named is T1, AP2-G D1. As to the kind of experiment: gcPBM; about 25 ug protein; PBS, 1% milk, 0.2 mg/ml BSA, salmon testes DNA, 0.03% Triton X-100. As to conditions: tags: N-terminal GST (pGEX-4T-1), kept; label: surface-attached array probe.
For the molecule B1, the binding signal was 11.1 ln median PBM intensity, better of two orientations. Turning to B2, the binding signal was 11 ln median PBM intensity, better of two orientations. Turning to B3, the binding signal is 11.4 ln median PBM intensity, better of two orientations.

Turning to B4, the binding signal was 10.9 ln median PBM intensity, better of two orientations. B5: the binding signal is 11 ln median PBM intensity, better of two orientations. For B6 the value was 10.9 ln median PBM intensity, better of two orientations; for B7, 10.6 ln median PBM intensity, better of two orientations; for B8, 11.5 ln median PBM intensity, better of two orientations. For B9 the value was 11.4 ln median PBM intensity, better of two orientations.

On to B10, for which the binding signal was 11.4 ln median PBM intensity, better of two orientations.

Take B11: the binding signal is 11.1 ln median PBM intensity, better of two orientations. As to B12, the binding signal is 11.3 ln median PBM intensity, better of two orientations. For B13, the binding signal is 11 ln median PBM intensity, better of two orientations.

On to B14, for which the binding signal is 11.2 ln median PBM intensity, better of two orientations. B15: the binding signal is 11.1 ln median PBM intensity, better of two orientations.

B16: the binding signal was 11.4 ln median PBM intensity, better of two orientations. For B17, the binding signal is 10.8 ln median PBM intensity, better of two orientations. As for B18, the binding signal was 11.3 ln median PBM intensity, better of two orientations. For the molecule B19, the binding signal is 11.1 ln median PBM intensity, better of two orientations. Consider B20, for which the binding signal was 11.5 ln median PBM intensity, better of two orientations.

In the case of B21, the binding signal is 11.1 ln median PBM intensity, better of two orientations. Turning to B22, the binding signal is 11.4 ln median PBM intensity, better of two orientations. For B23, the binding signal is 11 ln median PBM intensity, better of two orientations. With B24, the binding signal is 10.9 ln median PBM intensity, better of two orientations. With B25, the binding signal is 10.9 ln median PBM intensity, better of two orientations. Regarding B26, the binding signal was 11 ln median PBM intensity, better of two orientations. For B27, the binding signal was 11.1 ln median PBM intensity, better of two orientations.

For B28, the binding signal was 11.3 ln median PBM intensity, better of two orientations. For B29 the value was 11 ln median PBM intensity, better of two orientations; for B30, 11.1 ln median PBM intensity, better of two orientations.
